{"source": "paper PMC8093553", "origin": "cited, not measured here", "molecular_target": "transferrin receptor (Homo sapiens) (UniProt P02786)", "sequence (P02786 101-760)": "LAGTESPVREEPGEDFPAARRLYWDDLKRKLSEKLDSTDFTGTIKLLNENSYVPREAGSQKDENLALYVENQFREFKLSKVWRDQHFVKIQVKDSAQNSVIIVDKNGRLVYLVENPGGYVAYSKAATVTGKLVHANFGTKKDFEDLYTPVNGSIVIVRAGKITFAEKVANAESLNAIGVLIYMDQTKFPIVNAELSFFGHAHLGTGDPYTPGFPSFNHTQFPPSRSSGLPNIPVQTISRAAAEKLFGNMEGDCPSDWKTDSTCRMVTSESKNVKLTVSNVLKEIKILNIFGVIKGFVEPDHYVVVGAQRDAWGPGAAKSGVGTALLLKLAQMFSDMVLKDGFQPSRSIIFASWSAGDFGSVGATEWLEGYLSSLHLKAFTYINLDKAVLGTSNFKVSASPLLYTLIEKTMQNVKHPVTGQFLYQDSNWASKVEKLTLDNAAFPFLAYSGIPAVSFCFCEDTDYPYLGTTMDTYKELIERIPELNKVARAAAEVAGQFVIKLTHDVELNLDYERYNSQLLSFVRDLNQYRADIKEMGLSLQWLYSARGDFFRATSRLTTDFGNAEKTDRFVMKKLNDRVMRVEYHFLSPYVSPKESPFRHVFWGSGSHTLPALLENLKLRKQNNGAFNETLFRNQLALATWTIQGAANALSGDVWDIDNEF"}
{"substance": "T7 peptide", "values": [{"measurement": "Kd", "value": 10, "unit": "nM"}]}
